Results as given in publication PMC4489720.

Experiments:
[1] = target: His-tagged recombinant full-length HB3VAR06 (FV6) (P. falciparum HB3); test: SEC; Superdex 200 10/30 HR, 50 mM Tris-HCl, 150 mM NaCl, pH 7.4; α2M (150 μg) alone and with molar ratios of FV6, incubated on ice 15 min; 0.5 mL/min, A280
[2] = target: His-tagged recombinant full-length HB3VAR06 (FV6) (P. falciparum HB3); test: ELISA; MaxiSorp plates coated with recombinant PfEMP1 constructs (18 nM, overnight, 4°C); blocked in TSM buffer with 1% Ig-free BSA; α2M or α2M-MA (10 nM; titrated in Fig 2A); detected with anti-α2M antibodies

B1: α2-macroglobulin (α2M), native (natural protein)
chain: SVSGKPQYMVLVPSLLHTETTEKGCVLLSYLNETVTVSASLESVRGNRSLFTDLEAENDVLHCVAFAVPKSSSNEEVMFLTVQVKGPTQEFKKRTTVMVKNEDSLVFVQTDKSIYKPGQTVKFRVVSMDENFHPLNELIPLVYIQDPKGNRIAQWQSFQLEGGLKQFSFPLSSEPFQGSYKVVVQKKSGGRTEHPFTVEEFVLPKFEVQVTVPKIITILEEEMNVSVCGLYTYGKPVPGHVTVSICRKYSDASDCHGEDSQAFCEKFSGQLNSHGCFYQQVKTKVFQLKRKEYEMKLHTEAQIQEEGTVVELTGRQSSEITRTITKLSFVKVDSHFRQGIPFFGQVRLVDGKGVPIPNKVIFIRGNEANYYSNATTDEHGLVQFSINTTNVMGTSLTVRVNYKDRSPCYGYQWVSEEHEEAHHTAYLVFSPSKSFVHLEPMSHELPCGHTQTVQAHYILNGGTLLGLKKLSFYYLIMAKGGIVRTGTHGLLVKQEDMKGHFSISIPVKSDIAPVARLLIYAVLPTGDVIGDSAKYDVENCLANKVDLSFSPSQSLPASHAHLRVTAAPQSVCALRAVDQSVLLMKPDAELSASSVYNLLPEKDLTGFPGPLNDQDNEDCINRHNVYINGITYTPVSSTNEKDMYSFLEDMGLKAFTNSKIRKPKMCPQLQQYEMHGPEGLRVGFYESDVMGRGHARLVHVEEPHTETVRKYFPETWIWDLVVVNSAGVAEVGVTVPDTITEWKAGAFCLSEDAGLGISSTASLRAFQPFFVELTMPYSVIRGEAFTLKATVLNYLPKCIRVSVQLEASPAFLAVPVEKEQAPHCICANGRQTVSWAVTPKSLGNVNFTVSAEALESQELCGTEVPSVPEHGRKDTVIKPLLVEPEGLEKETTFNSLLCPSGGEVSEELSLKLPPNVVEESARASVSVLGDILGSAMQNTQNLLQMPYGCGEQNMVLFAPNIYVLDYLNETQQLTPEIKSKAIGYLNTGYQRQLNYKHYDGSYSTFGERYGRNQGNTWLTAFVLKTFAQARAYIFIDEAHITQALIWLSQRQKDNGCFRSSGSLLNNAIKGGVEDEVTLSAYITIALLEIPLTVTHPVVRNALFCLESAWKTAQEGDHGSHVYTKALLAYAFALAGNQDKRKEVLKSLNEEAVKKDNSVHWERPQKPKAPVGHFYEPQAPSAEVEMTSYVLLAYLTAQPAPTSEDLTSATNIVKWITKQQNAQGGFSSTQDTVVALHALSKYGAATFTRTGKAAQVTIQSSGTFSSKFQVDNNNRLLLQQVSLPELPGEYSMKVTGEGCVYLQTSLKYNILPEKEEFPFALGVQTLPQTCDEPKAHTSFQISLSVSYTGSRSASNMAIVDVKMVSGFIPLKPTVKMLERSNHVSRTEVSSNHVLIYLDKVSNQTLSLFFTVLQDVPVRDLKPAIVKVYDYYETDEFAIAEYNAPCSKDLGNA
stoichiometry N [1]: > 4 FV6 per α2M | amount bound relative to α2M-MA (fold) [2]: 4 fold

B2: methylamine-activated α2-macroglobulin (α2M-MA) (natural protein)
chain: B1 chain
modifications: internal thioester cleaved by methylamine (MA-activated)
stoichiometry N (FV6 per α2M-MA) [1]: 1
